Data taken from the supplement of paper PMC11316812.
± gives the standard deviation of the averaged measurements.

How the values were obtained:
[1] = system: MCF7; experiment: percentage of EdU-negative (G0-arrested) nuclei per well, 72 h; higher = more G0 arrest; conditions: reference: sequence is the full UniProt precursor, the tested protein was the secreted form or ectodomain
[2] = system: hTERT-HMEC; experiment: as above; conditions: reference: sequence is the full UniProt precursor, the tested protein was the secreted form or ectodomain
[3] = protein concentration 0.0225 µM
[4] = protein concentration 0.0165825 µM
[5] = protein concentration 0.165825 µM
[6] = protein concentration 0.0305714 µM
[7] = protein concentration 0.305714 µM
[8] = protein concentration 0.0122857 µM
[9] = protein concentration 0.122857 µM
[10] = protein concentration 0.01425 µM
[11] = protein concentration 0.1425 µM
[12] = protein concentration 0.0257143 µM
[13] = protein concentration 0.257143 µM
[14] = protein concentration 0.01625 µM
[15] = protein concentration 0.1625 µM
[16] = protein concentration 0.03125 µM
[17] = protein concentration 0.3125 µM
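Also: secreted proteins added to cultured cells, EdU pulse at the end, nuclei found by Hoechst imaging, EdU status from nuclear versus surrounding ring intensity ratio, PBS as neutral control.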

Sequence	percentage of EdU-negative [1, 3]	percentage of EdU-negative ([1]; protein concentration 0.225 µM)	percentage of EdU-negative [2, 3]	percentage of EdU-negative ([2]; protein concentration 0.225 µM)	further results
MKGFTATLFLWTLIFPSCSGGGGGKAWPTHVVCSDSGLEVLYQSCDPLQDFGFSVEKCSKQLKSNINIRFGIILREDIKELFLDLALMSQGSSVLNFSYPICEAALPKFSFCGRRKGEQIYYAGPVNNPEFTIPQGEYQVLLELYTEKRSTVACANATIMCS	28.5 ± 0.69%	29.008 ± 0.011%	4.8 ± 0.29%	6.1 ± 0.31%	–
MKGICSDAILVLATSMWMAFAIDFPLPMASERGQLDKTIVECLKNVNKCWFLSYIKPSEPICGSDQVTYSSDCHLCSKILFEGLNITKLYDGQCENS [P0C7L1]	23.2 ± 2.9%	26.1 ± 0.36%	5.76 ± 1.6%	7.03 ± 0.23%	–
MKGILVAGITAVLVAAVESLSCVQCNSWEKSCVNSIASECPSHANTSCISSSASSSLETPVRLYQNMFCSAENCSEETHITAFTVHVSAEEHFHFVSQCCQGKECSNTSDALDPPLKNVSSNAECPACYESNGTSCHGKPWKCYEEEQCVFLVAELKNDIESKSLVLKGCSNVSNATCQFLSGENKTLGGVIFRKFECANVNSLTPTSAPTTSHNVGSKASLYLLALASLLLRGLLP [Q6UX82]	26.8 ± 1.8%	24 ± 2.7%	4.63 ± 0.18%	5.88 ± 0.78%	–
MKGLAAALLVLVCTMALCSCAQVGTNKELCCLVYTSWQIPQKFIVDYSETSPQCPKPGVILLTKRGRQICADPNKKWVQKYISDLKLNA	–	–	–	–	percentage of EdU-negative [1, 4]: 26.2 ± 1.5%; percentage of EdU-negative [1, 5]: 24.6 ± 2.4%; percentage of EdU-negative [2, 4]: 5.34 ± 1.1%; percentage of EdU-negative [2, 5]: 5.89 ± 1.1%
MKGSIFTLFLFSVLFAISEVRSKESVRLCGLEYIRTVIYICASSRWRRHQEGIPQAQQAETGNSFQLPHKREFSEENPAQNLPKVDASGEDRLWGGQMPTEELWKSKKHSVMSRQDLQTLCCTDGCSMTDLSALC [Q9Y5Q6]	25.5 ± 2.3%	27.6 ± 3%	5.011 ± 0.042%	4.97 ± 0.86%	–
MKGWGWLALLLGALLGTAWARRSQDLHCGACRALVDELEWEIAQVDPKKTIQMGSFRINPDGSQSVVEVPYARSEAHLTELLEEICDRMKEYGEQIDPSTHRKNYVRVVGRNGESSELDLQGIRIDSDISGTLKFACESIVEEYEDELIEFFSREADNVKDKLCSKRTDLCDHALHISHDEL [Q9Y2B0]	23.4 ± 3.1%	25.3 ± 1.3%	5.14 ± 0.16%	6.74 ± 0.6%	–
MKHSLNALLIFLIITSAWGGSKGPLDQLEKGGETAQSADPQWEQLNNKNLSMPLLPADFHKENTVTNDWIPEGEEDDDYLDLEKIFSEDDDYIDIVDSLSVSPTDSDVSAGNILQLFHGKSRIQRLNILNAKFAFNLYRVLKDQVNTFDNIFIAPVGISTAMGMISLGLKGETHEQVHSILHFKDFVNASSKYEITTIHNLFRKLTHRLFRRNFGYTLRSVNDLYIQKQFPILLDFKTKVREYYFAEAQIADFSDPAFISKTNNHIMKLTKGLIKDALENIDPATQMMILNCIYFKGSWVNKFPVEMTHNHNFRLNEREVVKVSMMQTKGNFLAANDQELDCDILQLEYVGGISMLIVVPHKMSGMKTLEAQLTPRVVERWQKSMTNRTREVLLPKFKLEKNYNLVESLKLMGIRMLFDKNGNMAGISDQRIAIDLFKHQGTITVNEEGTQATTVTTVGFMPLSTQVRFTVDRPFLFLIYEHRTSCLLFMGRVANPSRS	–	–	–	–	percentage of EdU-negative [1, 6]: 27.6 ± 0.28%; percentage of EdU-negative [1, 7]: 30 ± 1.5%; percentage of EdU-negative [2, 6]: 6.41 ± 0.77%; percentage of EdU-negative [2, 7]: 22.5 ± 9.3%
MKILILGIFLFLCSTPAWAKEKHYYIGIIETTWDYASDHGEKKLISVDTEHSNIYLQNGPDRIGRLYKKALYLQYTDETFRTTIEKPVWLGFLGPIIKAETGDKVYVHLKNLASRPYTFHSHGITYYKEHEGAIYPDNTTDFQRADDKVYPGEQYTYMLLATEEQSPGEGDGNCVTRIYHSHIDAPKDIASGLIGPLIICKKDSLDKEKEKHIDREFVVMFSVVDENFSWYLEDNIKTYCSEPEKVDKDNEDFQESNRMYSVNGYTFGSLPGLSMCAEDRVKWYLFGMGNEVDVHAAFFHGQALTNKNYRIDTINLFPATLFDAYMVAQNPGEWMLSCQNLNHLKAGLQAFFQVQECNKSSSKDNIRGKHVRHYYIAAEEIIWNYAPSGIDIFTKENLTAPGSDSAVFFEQGTTRIGGSYKKLVYREYTDASFTNRKERGPEEEHLGILGPVIWAEVGDTIRVTFHNKGAYPLSIEPIGVRFNKNNEGTYYSPNYNPQSRSVPPSASHVAPTETFTYEWTVPKEVGPTNADPVCLAKMYYSAVEPTKDIFTGLIGPMKICKKGSLHANGRQKDVDKEFYLFPTVFDENESLLLEDNIRMFTTAPDQVDKEDEDFQESNKMHSMNGFMYGNQPGLTMCKGDSVVWYLFSAGNEADVHGIYFSGNTYLWRGERRDTANLFPQTSLTLHMWPDTEGTFNVECLTTDHYTGGMKQKYTVNQCRRQSEDSTFYLGERTYYIAAVEVEWDYSPQREWEKELHHLQEQNVSNAFLDKGEFYIGSKYKKVVYRQYTDSTFRVPVERKAEEEHLGILGPQLHADVGDKVKIIFKNMATRPYSIHAHGVQTESSTVTPTLPGETLTYVWKIPERSGAGTEDSACIPWAYYSTVDQVKDLYSGLIGPLIVCRRPYLKVFNPRRKLEFALLFLVFDENESWYLDDNIKTYSDHPEKVNKDDEEFIESNKMHAINGRMFGNLQGLTMHVGDEVNWYLMGMGNEIDLHTVHFHGHSFQYKHRGVYSSDVFDIFPGTYQTLEMFPRTPGIWLLHCHVTDHIHAGMETTYTVLQNEDTKSG	–	–	–	–	percentage of EdU-negative [1, 8]: 22.7 ± 3%; percentage of EdU-negative [1, 9]: 29.9 ± 0.94%; percentage of EdU-negative [2, 8]: 5.56 ± 0.7%; percentage of EdU-negative [2, 9]: 7.89 ± 0.25%
MKISILLMFLWGLSCALPVTRYQNNESEDSEEWKGHLAQAPTPPLESSESSEGSKVSSEEQANEDPSDSTQSEEGLGSDDHQYIYRLAGGFSRSTGKGGDDKDDDEDDSGDDTFGDDDSGPGPKDRQEGGNSRLGSDEDSDDTIQASEESAPQGQDSAQDTTSESRELDNEDRVDSKPEGGDSTQESESEEHWVGGGSDGESSHGDGSELDDEGMQSDDPESIRSERGNSRMNSAGMKSKESGENSEQANTQDSGGSQLLEHPSRKIFRKSRISEEDDRSELDDNNTMEEVKSDSTENSNSRDTGLSQPRRDSKGDSQEDSKENLSQEESQNVDGPSSESSQEANLSSQENSSESQEEVVSESRGDNPDPTTSYVEDQEDSDSSEEDSSHTLSHSKSESREEQADSESSESLNFSEESPESPEDENSSSQEGLQSHSSSAESQSEESHSEEDDSDSQDSSRSKEDSNSTESKSSSEEDGQLKNIEIESRKLTVDAYHNKPIGDQDDNDCQDGY	–	–	–	–	percentage of EdU-negative ([1]; protein concentration 0.021 µM): 24.6 ± 0.6%; percentage of EdU-negative ([1]; protein concentration 0.21 µM): 26.3 ± 0.99%; percentage of EdU-negative ([2]; protein concentration 0.021 µM): 4.74 ± 0.51%; percentage of EdU-negative ([2]; protein concentration 0.21 µM): 14.1 ± 2.1%
MKITGGLLLLCTVVYFCSSSEAASLSPKKVDCSIYKKYPVVAIPCPITYLPVCGSDYITYGNECHLCTESLKSNGRVQFLHDGSC	23.6 ± 1.3%	24.5 ± 2.9%	5.21 ± 1.1%	6.62 ± 0.67%	–
MKITSTSCICPVLVCLCFVQRCYGTAHHSSIKVMRNQTKHIEGETEVHHRPKRGWVWNQFFVLEEHMGPDPQYVGKLHSNSDKGDGSVKYILTGEGAGTIFIIDDTTGDIHSTKSLDREQKTHYVLHAQAIDRRTNKPLEPESEFIIKVQDINDNAPKFTDGPYIVTVPEMSDMGTSVLQVTATDADDPTYGNSARVVYSILQGQPYFSVDPKTGVIRTALHNMDREAREHYSVVIQAKDMAGQVGGLSGSTTVNITLTDVNDNPPRFPQKHYQLYVPESAQVGSAVGKIKANDADTGSNADMTYSIINGDGMGIFSISTDKETREGILSLKKPLNYEKKKSYTLNIEGANTHLDFRFSHLGPFKDATMLKIIVGDVDEPPLFSMPSYLMEVYENAKIGTVVGTVLAQDPDSTNSLVRYFINYNVEDDRFFNIDANTGTIRTTKVLDREETPWYNITVTASEIDNPDLLSHVTVGIRVLDVNDNPPELAREYDIIVCENSKPGQVIHTISATDKDDFANGPRFNFFLDERLPVNPNFTLKDNEDNTASILTRRRRFSRTVQDVYYLPIMISDGGIPSLSSSSTLTIRVCACERDGRVRTCHAEAFLSSAGLSTGALIAILLCVLILLAIVVLFITLRRSKKEPLIISEEDVRENVVTYDDEGGGEEDTEAFDITALRNPSAAEELKYRRDIRPEVKLTPRHQTSSTLESIDVQEFIKQRLAEADLDPSVPPYDSLQTYAYEGQRSEAGSISSLDSATTQSDQDYHYLGDWGPEFKKLAELYGEIESERTT	–	–	–	–	percentage of EdU-negative [1, 10]: 26 ± 2.9%; percentage of EdU-negative [1, 11]: 37 ± 4.3%; percentage of EdU-negative [2, 10]: 5.06 ± 0.45%; percentage of EdU-negative [2, 11]: 7.93 ± 0.73%
MKKFFTVAILAGSVLSTAHGSLLNLKAMVEAVTGRSAILSFVGYGCYCGLGGRGQPKDEVDWCCHAHDCCYQELFDQGCHPYVDHYDHTIENNTEIVCSDLNKTECDKQTCMCDKNMVLCLMNQTYREEYRGFLNVYCQGPTPNCSIYEPPPEEVTCSHQSPAPPAPP [Q9BZM2]	24.06 ± 0.22%	26 ± 1.2%	5.18 ± 0.43%	5.34 ± 1.1%	–
MKKSGVLFLLGIILLVLIGVQGTPVVRKGRCSCISTNQGTIHLQSLKDLKQFAPSPSCEKIEIIATLKNGVQTCLNPDSADVKELIKKWEKQVSQKKKQKNGKKHQKKKVLKVRKSQRSRQKKTT	–	–	–	–	percentage of EdU-negative [1, 12]: 24.8 ± 0.99%; percentage of EdU-negative [1, 13]: 27.7 ± 2.3%; percentage of EdU-negative [2, 12]: 4.62 ± 0.47%; percentage of EdU-negative [2, 13]: 6.18 ± 1.4%
MKLAALLGLCVALSCSSAAAFLVGSAKPVAQPVAALESAAEAGAGTLANPLGTLNPLKLLLSSLGIPVNHLIEGSQKCVAELGPQAVGAVKALKALLGALTVFG [Q96QR1]	21.8 ± 1.8%	23.7 ± 1.3%	5.9 ± 0.79%	5.2 ± 0.81%	–
MKLAFLFLGPMALLLLAGYGCVLGASSGNLRTFVGCAVREFTFLAKKPGCRGLRITTDACWGRCETWEKPILEPPYIEAHHRVCTYNETKQVTVKLPNCAPGVDPFYTYPVAIRCDCGACSTATTECETI [Q86YW7]	25.3 ± 2.8%	25.8 ± 1.5%	5.52 ± 0.71%	5.1 ± 0.082%	–
MKLALLLPWACCCLCGSALATGFLYPFSAAALQQHGYPEPGAGSPGSGYASRRHWCHHTVTRTVSCQVQNGSETVVQRVYQSCRWPGPCANLVSYRTLIRPTYRVSYRTVTVLEWRCCPGFTGSNCDEECMNCTRLSDMSERLTTLEAKVLLLEAAERPSSPDNDLPAPESTPPTWNEDFLPDAIPLAHPVPRQRRPTGPAGPPGQTGPPGPAGPPGSKGDRGQTGEKGPAGPPGLLGPPGPRGLPGEMGRPGPPGPPGPAGNPGPSPNSPQGALYSLQPPTDKDNGDSRLASAIVDTVLAGVPGPRGPPGPPGPPGPRGPPGPPGTPGSQGLAGERGTVGPSGEPGVKGEEGEKAATAEGEGVQQLREALKILAERVLILEHMIGIHDPLASPEGGSGQDAALRANLKMKRGGAQPDGVLAALLGPDPGQKSVDQASSRK [Q96A83]	–	–	–	–	percentage of EdU-negative [1, 14]: 26.9 ± 1.4%; percentage of EdU-negative [1, 15]: 25.1 ± 1.8%; percentage of EdU-negative [2, 14]: 4.63 ± 0.36%; percentage of EdU-negative [2, 15]: 7.44 ± 3.3%
MKLAVTLTLVTLALCCSSASAEICPSFQRVIETLLMDTPSSYEAAMELFSPDQDMREAGAQLKKLVDTLPQKPRESIIKLMEKIAQSSLCN	–	–	–	–	percentage of EdU-negative [1, 16]: 22.8 ± 2.1%; percentage of EdU-negative [1, 17]: 24.6 ± 0.57%; percentage of EdU-negative [2, 16]: 4.77 ± 0.77%; percentage of EdU-negative [2, 17]: 4.91 ± 0.97%
